According to publication PMC6747709, “Homology Modeling-Based in Silico Affinity Maturation Improves the Affinity of a Nanobody” (International Journal of Molecular Sciences, 2019):
Residue numbers refer to the chain shown, from its start. Names and notes keep the numbering of the source.

B1: Nb02 quadruple mutant M7 (G107W, T108H, S109V, F110A) (VHH)
VHH: EVQLQASGGGLVQAGGSLRLSCAASGFTNERSQNMGWFRQAPGKEREGVACISSRVVECWYADSVKGRFTISRDNAKNTVYLQMNSLKPEDTAVYYCAAPRAITWHVAVGEHMCDYWGQGTQVTVSS
notes: also called best mutant; lead variant; source: E. coli TransB (DE3), purified (Ni2+ IMAC, HisTrap HP); not shown: His6, C-terminal, kept
B2: Nb02 mutant M1 (VHH)
VHH: B1 VHH with S53Q, V107S, A108F
notes: One of five triple and two quadruple mutants combined from the round 1 mutations (S55Q, G107I, G107W, T108H, S109E, S109V, F110A); source: E. coli TransB (DE3), purified (Ni2+ IMAC, HisTrap HP)
B3: Nb02 mutant M2 (VHH)
VHH: B1 VHH with S53Q, H106T, A108F
notes: One of five triple and two quadruple mutants combined from the round 1 mutations; source: E. coli TransB (DE3), purified (Ni2+ IMAC, HisTrap HP)
B4: Nb02 mutant M3 (VHH)
VHH: B1 VHH with S53Q, W105G, A108F
notes: as for B3
B5: Nb02 mutant M4 (VHH)
VHH: B1 VHH with S53Q, W105G, V107S
notes: the text says only that M4 includes F110A; One of five triple and two quadruple mutants combined from the round 1 mutations; source: E. coli TransB (DE3), purified (Ni2+ IMAC, HisTrap HP)
B6: Nb02 mutant M5 (VHH)
VHH: B1 VHH with A108F
notes: as for B3
B7: Nb02 mutant M6 (VHH)
VHH: B1 VHH with S53Q, A108F
notes: as for B3

Experiments:
Settings in all cases: both partners purified
[1] = molecular target: T1, CD47 extracellular domain (biotin (enzymatically biotinylated; stated for the SPR experiment)); test: ELISA; indirect ELISA; CD47^ext coated at 30 ug/mL overnight at 4 °C; serially diluted VHH, 2.5 h at 37 °C; detected with HRP-conjugated anti-His tag mAb, OD450
T1 construct: CD47 extracellular domain; bought protein Abcam ab174029; source: bought: Abcam (ab174029), enzymatically biotinylated

[2] = molecular target: T1, CD47 extracellular domain; test: ELISA; indirect ELISA after heat treatment of the VHH (10 min at six temperatures, 4 to 70 °C); CD47^ext coated at 30 ug/mL; VHH at 30 ug/mL, 2 h at 37 °C; detected with HRP-conjugated anti-His tag mAb, OD450
[3] = molecular target: T1, CD47 extracellular domain; test: SPR; Biacore 3000, 25 °C; ~350 RU enzymatically biotinylated CD47^ext immobilised on a CM5 chip, VHHs flowed over at 40 uL/min in 10 mM HEPES, 150 mM NaCl, 3 mM EDTA, 0.05% P20, pH 7.4; 1:1 Langmuir model; duplicates

T1 sequence (chain, as listed by the source): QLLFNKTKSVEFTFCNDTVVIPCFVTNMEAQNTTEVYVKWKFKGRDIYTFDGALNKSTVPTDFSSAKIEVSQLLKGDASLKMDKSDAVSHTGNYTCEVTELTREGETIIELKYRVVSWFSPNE

Binder | ELISA signal relative to M0 at 5.625 ug/mL [1] [%] | ELISA signal relative to M0 at 360 ug/mL [1] [%] | OD450 at 70 °C relative to 4 °C [2] [%] | Kd [3] [nM]
B1 | 158 | ~120 | ~45 | 3.2 ± 1
B2 |  |  |  | 74.5 ± 5.5
B3 |  |  |  | 11.4 ± 2.1
B4 |  |  |  | 69.5 ± 6.1
B5 |  |  |  | 57 ± 7.3
B6 |  |  |  | 25.3 ± 3.7
B7 |  |  |  | 58.2 ± 4.5
